The target in the experiment is T1, Stt3p (yeast (endogenous), UniProt P39007 1-718, N-glycan at N539).
T1 sequence (looked up): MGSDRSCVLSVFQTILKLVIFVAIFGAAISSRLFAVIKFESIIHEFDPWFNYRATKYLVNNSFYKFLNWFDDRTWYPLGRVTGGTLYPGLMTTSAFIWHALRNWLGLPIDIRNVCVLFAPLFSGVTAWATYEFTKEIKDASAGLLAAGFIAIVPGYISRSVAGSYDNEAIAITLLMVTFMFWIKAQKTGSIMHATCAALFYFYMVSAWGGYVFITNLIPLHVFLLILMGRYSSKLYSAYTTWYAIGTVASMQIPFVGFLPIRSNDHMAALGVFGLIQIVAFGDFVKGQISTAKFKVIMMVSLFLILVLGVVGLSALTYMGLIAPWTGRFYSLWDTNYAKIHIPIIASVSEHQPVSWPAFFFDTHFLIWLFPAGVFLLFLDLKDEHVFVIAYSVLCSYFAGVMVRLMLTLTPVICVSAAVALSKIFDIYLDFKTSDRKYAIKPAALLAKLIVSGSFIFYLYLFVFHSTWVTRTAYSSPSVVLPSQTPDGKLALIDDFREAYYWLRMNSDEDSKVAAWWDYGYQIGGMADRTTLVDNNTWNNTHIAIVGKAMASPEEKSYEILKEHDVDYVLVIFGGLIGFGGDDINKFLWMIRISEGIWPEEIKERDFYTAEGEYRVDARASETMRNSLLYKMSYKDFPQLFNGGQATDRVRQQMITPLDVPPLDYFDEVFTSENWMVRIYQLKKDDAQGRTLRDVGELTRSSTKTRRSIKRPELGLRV
As to the kind of experiment: cryo-EM structure.

B1: Ost6p (natural protein, yeast, UniProt Q03723 25-332, looked up)
chain: TASHNIDDILQLKDDTGVITVTADNYPLLSRGVPGYFNILYITMRGTNSNGMSCQLCHDFEKTYHAVADVIRSQAPQSLNLFFTVDVNEVPQLVKDLKLQNVPHLVVYPPAESNKQSQFEWKTSPFYQYSLVPENAENTLQFGDFLAKILNISITVPQAFNVQEFVYYFVACMVVFIFIKKVILPKVTNKWKLFSMILSLGILLPSITGYKFVEMNAIPFIARDAKNRIMYFSGGSGWQFGIEIFSVSLMYIVMSALSVLLIYVPKISCVSEKMRGLLSSFLACVLFYFFSYFISCYLIKNPGYPIVF
In the case of B1, the binding result was “binds”.

The values are drawn from publication doi:10.1101/2021.05.17.443621 (bioRxiv, 2021).
